According to the nanobody polyreactivity screen of Harvey et al. (2022):

Assay: yeast display, Sf9 membrane polyspecificity reagent, FACS + sequencing; frameworks hold sequencing errors
Method in brief: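 Galactose induction of a Saccharomyces cerevisiae BJ5465 synthetic nanobody display library ran 36–48 hours. The cells were then stained for 1 hour at 4 °C with 10% biotinylated, detergent-solubilized Sf9 membrane reagent, pulled down on streptavidin microbeads and FACS-sorted into low and high (top ~1%) gates on expression and reagent-binding fluorescence. Labels for polyreactivity follow the gate of origin.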

With “QDQHVESGGGLVQAGGSLRLSFAASGRTFISYTKGWYRPAPGKERELVAAINFSGGITYYADSVKGRFTISHDNAMNTVYLQMNSLKPVDTAVYYCAADWRTRYDYWGQGTQVTVSS” the “polyreactivity (PSR sort gate)” value was “low polyreactivity”.

In the case of “QVQLVESGGGLVQAGGSLRLSCAASGSIFPGYAMGWYRQAPGKERELDATITWSGGSTYYADSVKGRFTISRDTAKNTVYLQMNSLKPEDTAVYYCNADSNWYYQWNYYGLYDYWGQGTQVTVSS”, the “polyreactivity (PSR sort gate)” value is reported as “low polyreactivity”.

With “QVQLVESGGGLVQAGGSLRLSCAASGFISTINVMGWYRQAPGKEREMVAAMTYIDGSTFYADSVKGRFTISRDNAKNTVYLQMNSLKPEDTAVYYCAADLYQWGAVFLYVRSTGLDYWGQGTQVTVSS” the “polyreactivity (PSR sort gate)” value was “low polyreactivity”.

For “QVQLVESGGGLDQAGGSLRLSCAASGSIFGYYAMGWYRQAPGKERELVAAISWSDGSTYYADSVKGRFTISRDNAKNTVYLQMNSLKPEDTAVYSCAARFTPYITSDDGHYDYWGQGTEVTVSS”, the “polyreactivity (PSR sort gate)” value was “low polyreactivity”.

With “QVQLVESGGGLVQAGGSLRLSCAASGIIFRTYAMGCYRQAPVKERELVAAITGSGGITYYADSVKGRFTISRDNAKNTVYLQMNSLKPEDTAVYYCAARGTRDGVQRYGYWGQGSQVTVSS” the “polyreactivity (PSR sort gate)” value was “high polyreactivity”.

In the case of “QVHLVESGGGLVQAGGSLRLSCAASGSIFYVYAMVWYRQAPGKERELVAAITWSGGSTYYADSVKGRFTISRDNAKNTVYLQMNSLNPEDTAVYYCAADEGYDYPYYYWGQGTQVSVSS”, the “polyreactivity (PSR sort gate)” value is reported as “high polyreactivity”.

With “QVQLVESGGVLVQAGGSLRLSCAASGSIFGSYGMGWYRQAPGKERELVAAIRVSGGSTYYADSVKGRFTISRDNAKNTVYLQMNSLKPEDTAVYYCAARARSTPRKYYYTRGYWGQGTQVTVSS” the “polyreactivity (PSR sort gate)” value was “high polyreactivity”.

For “QVQLVESGGGLVQAGGSLRLSCAASGSTFRYNAMGWYRQAPGKVRELVASITWSGGDTYYADSVKGRFTISRDNAKNTVYLQMNSLKPEDTAVYYCNKRVHYIAGRGYDYWGQGNQVTVSS”, the “polyreactivity (PSR sort gate)” value was “low polyreactivity”.

With “QVQLVESGGGLVQAGGSLRLSCAASGSTFYANAMGWYRQAPGKERELVAAIDSGGTTTYADSVKGRFTISRDNAKNTVYLQMNSLKPEDTAVYYCAADQYWYIWYDYWGQGTQVTVSS” the “polyreactivity (PSR sort gate)” value was “low polyreactivity”.

With “QVQLVESVGGLVQAGASLRLSCAASGGTFPVYAMGWYRQAPGKEREMVAAISYSGVTTYYADSVKGRFTISRDNAKNTVYLQMNSLKPDDTAVYYCNADWRRWYIFSYDYWGQGTLVTVSS” the “polyreactivity (PSR sort gate)” value was “low polyreactivity”.

With “QVQLEESGGGLVQAGGSLRLICAASGGIFQKYAMGWYRQAPGKERELVASNNTGVRTYYADSVKGRFTISRDNAKNTVYLQMNSLKPEDTAVYYCNADGGGPRKYTRTRGHWGQGTQVTVSS” the “polyreactivity (PSR sort gate)” value was “low polyreactivity”.

In the case of “QVQLVESGGGLVQAGGSLRLSCAASGYTFGYNAMGWYRQAPGKERELVATISSGGTTTYADSVKGRFTISRDNAKNTVYLQMNSLKPEDTAVYYCNVYDYPTYDYWGQGTQVTVSS”, the “polyreactivity (PSR sort gate)” value is reported as “low polyreactivity”.

In the case of “QVQLVESGGGLVQAGGRLRLSCAASGNIFKRYTMGWYRQAPGKERELVAAISGGDSTNYADSVKGRFTISRDNANNTFYLQMNSLKPEDTAVYYCAAGGLTLWHGYILGYWGQGTQVTVSS”, the “polyreactivity (PSR sort gate)” value is reported as “low polyreactivity”.

With “QVQLVESGGGLVQAGGSLRLSCAASGSIFSGYAMGWYRQAPGKERELVAAITWRAASTYYADSVKGRFTISRDNAKNTVYLQMNSLKPEDTAVYYCAKEGWPKPAFYYWGQGTQVTVSS” the “polyreactivity (PSR sort gate)” value was “low polyreactivity”.

For “QVQLVESGGGLVKAGGILRLSCAASGFNFSSYAMGWYIPAPGKERELVAAISGSGGTTYYADSVKGRFTISRDNAKNTVYLQLNSLKPEDTAVYYCATRLGLVITKYGYDYWGQGTQVTVSS”, the “polyreactivity (PSR sort gate)” value was “high polyreactivity”.

For “QVQLVESGGGLVQAGGSLRLSCAASGRIISSNAMGWYRQAPGKEREFVAAISWRTGSTYYADSVKGRFTISRDNAKNTVYLQMNILKPEDTAVYYCNKRNGSYCYPYYYWGQGTQVTVSS”, the “polyreactivity (PSR sort gate)” value was “high polyreactivity”.

With “QVQLVESGGGLVQAGGSLRLSCAASGRTIGINAMGWYRQAPGKERELVAVISFGDGGTYYADSVKGRFTISRDNAKNTVYLQMNSLKPEDTEVYYCATDYQSTSVWGGHFVINPYDYWGQGTQVTVSS” the “polyreactivity (PSR sort gate)” value was “low polyreactivity”.

For “QVQLVESGGGLVQAGGSLRLSCAASGLTFSKYVMGWYRQAPGKERELVAGISRSSGSTYYADSVKGRFTISRDNAKNTVYLQMNSLKPEDTAVYYCAARARRKYDYWGQGTQVTVSS”, the “polyreactivity (PSR sort gate)” value was “high polyreactivity”.

In the case of “QVQLVESGGGLVQAGGSLRLICAASGSSFSYNPMVWYRQAPGKERELVAAIRTSGGRTYYADSVKGRFTISRDNAKNTVYLQMNSLKPEDTAVYYCAKRWVYSYGYEYWGQGTQVTVSS”, the “polyreactivity (PSR sort gate)” value is reported as “high polyreactivity”.

For “QLQLVESGGGLVQAGGSLRLSCAASGRILRYYTMGWYRQAPGKERELVAAISRSGGGTYYADSVKGRFTISRDNANNTVDIEMYSLIPEDTSVYYCAAYKPSPYSSDYDYWGEGTQVTVSS”, the “polyreactivity (PSR sort gate)” value was “high polyreactivity”.

In the case of “QVQLQESGGGLVQAGGSLRQSCAASGYIFPYYSMGSYRQAPGKERGLVACIAAGTTTNYADSVKGRFTISRDNAKKSVYLQMNSLKPEDAAVYYCAALNAFNTGHWYWGQGTQVTVSS”, the “polyreactivity (PSR sort gate)” value is reported as “low polyreactivity”.

With “QVQLVESGGGLVQAGGSLRLSCAASGSTFRRYAMGWYRQAPGKERELVAGITSGGDTYYADSVKGRFTISRDNAKNTVYLQMNSLKPEDTALYYCARVRYGRMDYWGQGTQVTVSS” the “polyreactivity (PSR sort gate)” value was “high polyreactivity”.

With “QVQLVESGGGLVQAGGSLRLSCAASGSIFNGYVMGWYRQAPGKERELVASINRGGTTNYADSVKGRFTISRDNAKNTVYLQMNSLKPEDTAVYYCAVDDDANSLGGYYVLFDYWGQGTQVTVSS” the “polyreactivity (PSR sort gate)” value was “low polyreactivity”.

For “QVQLVESGGGLVQAGGSLRLSCAASGFTFEIYTMGWYRQAPGKERELVAAISTGGNTKYADSVKGRFTISRDNAKNTVYLQMNSLKPEDTAVYYCAKGRKPGYYYWGQGTQVTVSS”, the “polyreactivity (PSR sort gate)” value was “high polyreactivity”.

In the case of “QVQLVESGGGLVQAGGSLRLSCAASGITFSVYTMGWYRPAPGKERELVAAIDSDGITNYADSVKGRFTISRDNAKNNVYLQMNSLKPEDTAVYYCAKQSGRADGVSGFDYWGQGTQVTVSS”, the “polyreactivity (PSR sort gate)” value is reported as “low polyreactivity”.

In the case of “QVQLVESRGGLVQAGGSLSLSCAASGRIFYIYDMGWYRQAPGKERELVAAISTSGGSTFYADSVKGRFTISRDNAKNTVYLQMNSLKPEDTAVYYCAARFRYYGSEYDYWGQGTQVSVSS”, the “polyreactivity (PSR sort gate)” value is reported as “low polyreactivity”.

For “QVQLVESGGGLVQAGGSLRLSCAASGFTFQTYAMGWYRQAPGKERELVATINSSGGGTYYADSVKGRFTISRDNAKNTVYLQMNSLKPEDTAVYYCAADAVWFVGQAFDISDSTTYGYWGQGTQVTVSS”, the “polyreactivity (PSR sort gate)” value was “low polyreactivity”.

In the case of “QVQLVESGGGLVQAGGSLRLSCAASGSIFGINAMGWYRQAPWKERELVAAITSDGSTYYADSVKGRFTISRDNAKNTVYLQMNSLNPEDTAVYYCAAYSWYYTSRYDYWGQGTQVTVSS”, the “polyreactivity (PSR sort gate)” value is reported as “low polyreactivity”.

With “QVQLVESGGGLVQAGGSLRLSCAASGGTFPAYAMGWYRQAPGKERELVASISDDDSTYYADSVKGRFTISRDNAKNTVYLQMNSLKPEDTAVYYCNVEYWYYPSVEYYWTAYDYWGQGTQVTVSS” the “polyreactivity (PSR sort gate)” value was “low polyreactivity”.

For “QVQLVESGGGLVQAGGSLRLSCAASGRIFIYNAMGWYCQAPGKERELVAAINRSGVSTHYADSVKGRFTISRDNAKNTVYLQMNSLKPEDTAVYYCARTDYGARSYDYWGQGTQVTVSS”, the “polyreactivity (PSR sort gate)” value was “low polyreactivity”.

With “QVQLVESGGGIVQAGGSLRLSCAASGITFDGYAMGWYRQAPGKERELVAGISWSGARTYYADSVKGRFTISRDNAKNTVYLLMNSLKPEDTALYYCNKVSLRNHGGYDYWGQGNQVTVSS” the “polyreactivity (PSR sort gate)” value was “high polyreactivity”.

With “QVQLVESGGGLVQAGGSLRLSCAASGGTQRYYAMGWYRQAPGKEREFVASISRSGGSTYYADSVKGRFTISRDNAKNTVYLQMNSLKPEDTAVYYCAAYWSPGYTTRRGYWGQGTQVTVSS” the “polyreactivity (PSR sort gate)” value was “high polyreactivity”.

With “KVQLVESGGGLVQAGGSLRLSCAASGRTFESYAMGWYRQAPGKERELVAAITWSGGDTYYADSVKGRFTISRDNAKNTVYLQMNSLKPEDTAVYYCAKEQGLYSVSPYDYWGLGTQVTVSS” the “polyreactivity (PSR sort gate)” value was “low polyreactivity”.

With “QVQLVESGGGLVQAGGSLRLSCAASGIIFHGYAMGWYRQAPGKERELVAAITNSGGRTYYADSVKGRFTISRDNAKNTVYLQMNSLKPEDTAVYYCAADGHKYRMDYWGQGTQVTVSS” the “polyreactivity (PSR sort gate)” value was “low polyreactivity”.

In the case of “QVQLVESGGGLVQAGGSLRLSCAASGFIFSNNAMGWYRQAPGKERELVAVINGGGSTYYADSVKGRFTISRDNAKNTVYLQMNSLKPEDTAFYYCARKSWPKERRVDPGYDYWGQGTQVTVSS”, the “polyreactivity (PSR sort gate)” value is reported as “low polyreactivity”.

For “QVQLVESGGGLVQAGGSLRLSCAASGRIFVTYAMGWYRQAPGKERELVASISRSGGRTYYADSVKGRFTISRDNAKNTVYLQMNSLKPEDTAVYYCNADQEGYQQYFYLGSPYDYWGQGTQVTVSS”, the “polyreactivity (PSR sort gate)” value was “low polyreactivity”.

For “QVQLVESGGGLVQAGGSLRLSCAASGFIIKGNVMGWYRQAPGKERELVAAITRRGSTYYADSVKGRFTISRDNAKNTVYLQMNSLKPEDTAVYYCAARPWKAIEKVDGSGGGDYWGQGTQVTVSS”, the “polyreactivity (PSR sort gate)” value was “low polyreactivity”.

In the case of “QVHLVESGGGLVQAGGSLRLICAASGRIFIVYAMGWYRQAPGKERELVAVITGGGSTNYADSVKGRFTISRDNAKNSVYLQMNSLKPEDTAVYYCATEGYGHGGETVGGVYSDLGYWGQGTQVTVSS”, the “polyreactivity (PSR sort gate)” value is reported as “low polyreactivity”.

In the case of “QFQLVESGGGLVQAGGSLRLSCAASGFIFTRYVMGWYRQAPGKERELVAAINWSGDSTYYADSVKGRFTISRDYAKNTVYLQLNSLKPEDTAVYYCNADYGWVDTYTNYDYWGQGTQVTVSS”, the “polyreactivity (PSR sort gate)” value is reported as “low polyreactivity”.

In the case of “QVQLVESGGGLVQAGGSLRLTCAASGSIFAAKAMGWYRQAPGKERELVAAIRTRTGSTYYADSVKGRFTISRDNAKNTVYLEMNSLKPEDTAVYYCAADGGVPFWIHSTYYYWGQGTQVTVSS”, the “polyreactivity (PSR sort gate)” value is reported as “low polyreactivity”.

With “QVQLVESGGGLVQAGGSLRLSCAASGSTFDPNAMGWYRQAPGKERELVASITSRGGSTYYADSVKGRFTISRDNAKNTVYLQMNSLKPEDTAVYYCAAVGGATYSWNGYSWYAWHNYWGQGTQVTVSS” the “polyreactivity (PSR sort gate)” value was “low polyreactivity”.

With “QVQLVESGGGLVQAGGSLRLSCAASGRIFIYNAMGWYRQAPGKERELVAAISYSGGRTYYADSVKGRFTISRDNPKNTVYLQMNRLKPEDPAVYYCNAAYRISSAPGYFYFPYNYDYWGQGTQVTVSS” the “polyreactivity (PSR sort gate)” value was “high polyreactivity”.

With “QVQLVESGGGLVQAGGSLRLSCAASGSTFPKYAMGWYRQAPGKERELVALITSSTGTTYYADSVKGRFTISRDNAKNTVYLQMNSLKPEDTAVYYCNARVRYREWGLYYWGQGTQVTVSS” the “polyreactivity (PSR sort gate)” value was “high polyreactivity”.
